Reference: paper PMC3855486, “New Insights into the Phylogeny and Molecular Classification of Nicotinamide Mononucleotide Deamidases” (PLoS ONE, 2013)

Substrate: NC(=O)c1ccc[n+]([C@@H]2O[C@H](COP(=O)(O)O)[C@@H](O)[C@H]2O)c1
Experiment: HPLC, decrease of NMN peak area
Format: biochemical, Oceanobacillus iheyensis
Conditions: 50 mM phosphate buffer pH 7.5, 37 °C, Michaelian, NMN 0.01-1 mM

B1: OiPncC (Oceanobacillus iheyensis HTE831) (protein)
chain: MKNYQAEIVAVGTELLLGQIANTNAQWLSEKLATYGINMYNHTVVGDNLERVEQAFQLAQSRSNIIIVTGGLGPTADDLTREGFQQMTGLPLVEDKESMEKIEGFFQNRGRTMTPNNRKQARVFEGSTVLNNKAGMAPGMYVHYQSCHWFFLPGVPREMKHISQEELFPFLEKVTGKQRIIQSVVLKFIGIGESTLEHTLSDLIEKQTNPTIAPLAQDQAVVIRLTARGETKQEAEAMLEQTKKLILARVGEHYFGENEESIEDIVVQQLQDLGYSISAAESITGGMFSQRLVSVTGASNVFAGSFITYQSRIKEEVLEVPSEIIHSQGVVSRACSDAMASNVTRKIQTNLGISFTGIAGPDEQEGKPVGTVYISIADGDEVVVSKQFNFTGNRNHIRDRACLKGFELIYQYLKSKS
notes: full length, 417 residues (gene misprinted as 417 bp), MocF-CinA two-domain; C-terminal His6 (pET24b), E. coli Rosetta2(DE3)
- Km: 180 ± 20 µM
- kcat: 0.38 ± 0.01 s⁻¹
